Assay results reported in article PMC11748629, “Unidirectional MCM translocation away from ORC drives origin licensing” (Nature Communications, 2025).

How the values were obtained:
[1] = target: T1, Orc1 (Saccharomyces cerevisiae, UniProt P54784 1-914); experiment: cryo-EM structure; OCCM^Mcm2RA: 30 nM MH-ARS1-MH DNA, 60 nM ORC, 90 nM Cdc6, 60 nM MCM-Cdt1 (Mcm2 R676A), 3 mM ATP; 25 mM HEPES pH 7.6, 100 mM potassium chloride, 10 mM magnesium acetate, 1 mM DTT; 30 °C, 30 min; 3.3 Å consensus, 3.2 Å local refinements; conditions: both partners purified
T1 construct: Orc1, S. cerevisiae; Subunit of m1, written alone for the contacts seen in the structures; also called Orc1 subunit of ORC; source: S. cerevisiae strain ySD-ORC, purified as a subunit of ORC
T1 sequence: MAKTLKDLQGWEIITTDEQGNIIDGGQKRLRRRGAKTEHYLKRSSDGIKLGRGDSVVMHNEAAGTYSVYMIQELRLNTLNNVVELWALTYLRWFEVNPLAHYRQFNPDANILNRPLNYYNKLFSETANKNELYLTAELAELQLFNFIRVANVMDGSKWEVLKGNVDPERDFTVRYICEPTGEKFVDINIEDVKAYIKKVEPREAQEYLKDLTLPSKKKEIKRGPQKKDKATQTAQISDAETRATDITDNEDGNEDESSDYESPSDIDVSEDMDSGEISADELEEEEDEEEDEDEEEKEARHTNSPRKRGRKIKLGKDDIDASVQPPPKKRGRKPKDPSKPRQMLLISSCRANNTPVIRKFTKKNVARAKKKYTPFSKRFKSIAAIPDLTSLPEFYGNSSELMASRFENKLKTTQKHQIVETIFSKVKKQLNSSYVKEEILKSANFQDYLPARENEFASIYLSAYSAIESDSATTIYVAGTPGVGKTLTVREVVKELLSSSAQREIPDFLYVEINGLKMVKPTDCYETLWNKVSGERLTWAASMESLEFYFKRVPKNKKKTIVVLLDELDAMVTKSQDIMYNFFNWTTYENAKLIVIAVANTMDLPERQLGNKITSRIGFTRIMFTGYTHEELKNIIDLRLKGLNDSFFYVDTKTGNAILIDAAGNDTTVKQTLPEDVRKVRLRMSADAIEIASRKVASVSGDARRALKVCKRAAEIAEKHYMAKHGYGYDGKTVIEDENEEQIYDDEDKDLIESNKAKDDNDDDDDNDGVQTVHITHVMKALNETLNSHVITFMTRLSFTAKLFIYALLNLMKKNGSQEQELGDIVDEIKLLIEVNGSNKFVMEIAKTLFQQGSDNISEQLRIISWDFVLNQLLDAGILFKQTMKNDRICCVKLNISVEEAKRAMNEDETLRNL

[2] = target: T2, Mcm4 (Saccharomyces cerevisiae, UniProt P30665 1-933); experiment: cryo-EM structure; OC1M^Mcm5RA: 30 nM MH-ARS1-MH DNA, 60 nM ORC, 90 nM Cdc6, 60 nM MCM-Cdt1 (Mcm5 R549A), 2 mM ATP; same buffer; 30 °C, 30 min; conformer 1 at 3.7 Å, conformer 2 at 3.4 Å (Orc1 ATPase domain seen only in conformer 1); conditions: both partners purified
T2 construct: Mcm4, S. cerevisiae; Subunit of m4 and m7, written alone for the contacts seen in the structures; also called Mcm4 subunit of MCM; source: S. cerevisiae strains yGC216 and yGC226, purified as a subunit of MCM-Cdt1
T2 sequence: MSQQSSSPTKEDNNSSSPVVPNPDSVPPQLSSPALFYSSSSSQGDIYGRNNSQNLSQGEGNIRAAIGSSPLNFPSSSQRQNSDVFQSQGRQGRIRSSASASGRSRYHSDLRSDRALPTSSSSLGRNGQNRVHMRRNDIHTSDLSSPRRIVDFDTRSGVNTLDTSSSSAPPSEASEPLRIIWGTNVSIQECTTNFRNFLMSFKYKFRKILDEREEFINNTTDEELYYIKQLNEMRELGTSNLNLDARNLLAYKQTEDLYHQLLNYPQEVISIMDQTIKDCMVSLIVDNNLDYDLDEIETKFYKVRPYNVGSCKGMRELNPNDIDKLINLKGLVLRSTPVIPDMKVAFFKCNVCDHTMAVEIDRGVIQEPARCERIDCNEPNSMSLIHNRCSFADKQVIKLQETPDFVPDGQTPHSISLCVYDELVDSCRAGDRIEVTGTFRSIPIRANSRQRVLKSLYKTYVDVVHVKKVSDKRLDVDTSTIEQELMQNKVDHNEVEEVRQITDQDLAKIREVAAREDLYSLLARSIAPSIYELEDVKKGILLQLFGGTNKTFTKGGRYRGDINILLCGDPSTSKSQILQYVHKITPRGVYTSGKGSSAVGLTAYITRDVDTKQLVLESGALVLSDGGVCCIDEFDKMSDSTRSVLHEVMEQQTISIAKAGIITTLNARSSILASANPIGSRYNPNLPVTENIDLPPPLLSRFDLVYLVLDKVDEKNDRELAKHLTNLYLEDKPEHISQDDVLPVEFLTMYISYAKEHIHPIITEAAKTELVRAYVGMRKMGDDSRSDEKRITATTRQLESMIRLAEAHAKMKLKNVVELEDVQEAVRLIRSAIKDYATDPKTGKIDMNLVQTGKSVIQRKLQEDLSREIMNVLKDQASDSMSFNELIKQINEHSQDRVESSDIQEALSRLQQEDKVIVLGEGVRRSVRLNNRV

binding result [1]: binds | binding result [2]: binds
B1: Mcm7 (natural protein, Saccharomyces cerevisiae)
chain: MSAALPSIQLPVDYNNLFNEITDFLVTFKQDTLSSDATRNENEDENLDAENIEQHLLEKGPKYMAMLQKVANRELNSVIIDLDDILQYQNEKFLQGTQADDLVSAIQQNANHFTELFCRAIDNNMPLPTKEIDYKDDVLDVILNQRRLRNERMLSDRTNEIRSENLMDTTMDPPSSMNDALREVVEDETELFPPNLTRRYFLYFKPLSQNCARRYRKKAISSKPLSVRQIKGDFLGQLITVRGIITRVSDVKPAVEVIAYTCDQCGYEVFQEVNSRTFTPLSECTSEECSQNQTKGQLFMSTRASKFSAFQECKIQELSQQVPVGHIPRSLNIHVNGTLVRSLSPGDIVDVTGIFLPAPYTGFKALKAGLLTETYLEAQFVRQHKKKFASFSLTSDVEERVMELITSGDVYNRLAKSIAPEIYGNLDVKKALLLLLVGGVDKRVGDGMKIRGDINVCLMGDPGVAKSQLLKAICKISPRGVYTTGKGSSGVGLTAAVMKDPVTDEMILEGGALVLADNGICCIDEFDKMDESDRTAIHEVMEQQTISISKAGINTTLNARTSILAAANPLYGRYNPRLSPLDNINLPAALLSRFDILFLMLDIPSRDDDEKLAEHVTYVHMHNKQPDLDFTPVEPSKMREYIAYAKTKRPVMSEAVNDYVVQAYIRLRQDSKREMDSKFSFGQATPRTLLGIIRLSQALAKLRLADMVDIDDVEEALRLVRVSKESLYQETNKSKEDESPTTKIFTIIKKMLQETGKNTLSYENIVKTVRLRGFTMLQLSNCIQEYSYLNVWHLINEGNTLKFVDDGTMDTDQEDSLVSTPKLAPQTTASANVSAQDSDIDLQDA
notes: Mcm7, S. cerevisiae; Subunit of m4 and m7, written alone for the contacts seen in the structures; also called Mcm7 subunit of MCM; source: S. cerevisiae strains yGC216 and yGC226, purified as a subunit of MCM-Cdt1
